Read-outs that look alike come from different tables or passages of the source.
Test system: pancreatic, cervical and lung cancer
Details: for ROI uptake RM (red marrow) / ROI uptake SI (small intestine) / ROI uptake Sk (skin) / ROI uptake Sp (spleen) / ROI uptake St (stomach) / ROI uptake TB (total body) / ROI uptake Tm (thymus) / ROI uptake Tr (thyroid) / ROI uptake ULI (upper large intestine) / ROI uptake Bl (bladder) / ROI uptake Bn (osteogenic cells) / ROI uptake Br (brain) / ROI uptake Brs (breast) / ROI uptake HC (heart contents) / ROI uptake HW (heart wall) / ROI uptake LLI (lower large intestine) / ROI uptake Ln (lung) / ROI uptake Lv (liver) / ROI uptake Ms (muscle) / ROI uptake Pn (pancreas) / ROI uptake Pt (pituitary gland): one patient, Fig 4C
Method: The administered dose was 55.5–96.2MBq (1.5–2.6 mCi). The scan (6 bed positions, 2 min bed^−1) covered an area that included the top of the skull to the middle of the femur. OSEM was applied for reconstruction. […] The CT scan (140 kV, 35 mA, pitch of 1:1, layer of 5 mm thickness; layer spacing of 3 mm, 512*512 matrix, field of view of 70 cm) also covered the top of the skull to the middle of the femur. […] Immediately upon completion of the first scan, the second whole-body static PET data was acquired. Sequentially, multiple whole-body static PET scans were acquired, one by one, from 0 to 75 min.
Upon co-registration of the PET and CT images, the CT images were used to determine regions of interest for the organs or tissues reported in the manuscript. These ROIs were applied to the PET images of the brain, pituitary gland, breast, lower and upper large intestine, small intestine, stomach, pancreas, heart wall, liver, lung, muscle, red marrow, bone, skin, and thyroid gland. For high uptake organs such as the kidneys, bladder and for the whole body, threshold-based segmentation of PET images were used to determine a close-fitting ROI around the entire organ or whole body. In order to determine accuracy, these PET-derived ROIs were compared to the CT overlay for a close match.

CC[C@H](C)[C@@H]1NC(=O)[C@@H](NC(=O)CNC(=O)CCC(C(=O)O)N2CCN(CC(=O)O)CCN(CC(=O)O)CC2)CSSC[C@@H]2NC(=O)[C@H](C)NC(=O)CNC(=O)[C@@H]3CCCN3C(=O)[C@@H]3CSSC[C@@H](C(=O)NCC(N)=O)NC(=O)[C@H](Cc4ccc(O)cc4)NC(=O)CNC(=O)[C@H](CC(N)=O)NC(=O)CNC(=O)[C@H](CCCNC(=N)N)NC(=O)[C@H](CSSC[C@H](NC(=O)[C@H](CCCNC(=N)N)NC(=O)[C@H](Cc4ccccc4)NC(=O)[C@H](CC(C)C)NC(=O)[C@H](CC(C)C)NC(=O)[C@H]([C@@H](C)O)NC(=O)CNC(=O)[C@H](CC(C)C)NC(=O)[C@H](CC(=O)O)NC(=O)[C@H]([C@@H](C)O)NC(=O)[C@H](CCCNC(=N)N)NC(=O)CNC(=O)[C@H](CC(N)=O)NC(=O)[C@H](CC(C)C)NC1=O)C(=O)N[C@@H](CCCNC(=N)N)C(=O)N[C@@H](CCCNC(=N)N)C(=O)N[C@@H](CC(=O)O)C(=O)N[C@@H](CO)C(=O)N[C@@H](CC(=O)O)C(=O)N3)NC(=O)[C@H]([C@@H](C)CC)NC2=O (some centres unmarked) [[^68Ga]NODAGA-R01-MG, metal not drawn]
ROI uptake RM (red marrow) (36 min p.i.): 0.2108
ROI uptake SI (small intestine) (36 min p.i.): 6.296
ROI uptake Sk (skin) (36 min p.i.): 0.08072
ROI uptake Sp (spleen) (36 min p.i.): 0.426
ROI uptake St (stomach) (36 min p.i.): 2.242
ROI uptake TB (total body) (36 min p.i.): 0.6996
ROI uptake Tm (thymus) (36 min p.i.): 0.6323
ROI uptake Tr (thyroid) (36 min p.i.): 0.7534
ROI uptake ULI (upper large intestine) (36 min p.i.): 1.834
ROI uptake Bl (bladder) (49 min p.i.): 9.366
ROI uptake Bn (osteogenic cells) (49 min p.i.): 0.4088
ROI uptake Br (brain) (49 min p.i.): 0.04004
ROI uptake Brs (breast) (49 min p.i.): 0.5978
ROI uptake HC (heart contents) (49 min p.i.): 0.5978
ROI uptake HW (heart wall) (49 min p.i.): 0.3526
ROI uptake LLI (lower large intestine) (49 min p.i.): 1.426
ROI uptake Ln (lung) (49 min p.i.): 0.3066
ROI uptake Lv (liver) (49 min p.i.): 0.6029
ROI uptake Ms (muscle) (49 min p.i.): 0.7154
ROI uptake Pn (pancreas) (49 min p.i.): 0.9657
ROI uptake Pt (pituitary gland) (49 min p.i.): 2.212
ROI uptake RM (red marrow) (49 min p.i.): 0.1942
ROI uptake SI (small intestine) (49 min p.i.): 6.546
ROI uptake Sk (skin) (49 min p.i.): 0.07665
ROI uptake Sp (spleen) (49 min p.i.): 0.373
ROI uptake St (stomach) (49 min p.i.): 2.34
ROI uptake TB (total body) (49 min p.i.): 0.6949
ROI uptake Tm (thymus) (49 min p.i.): 0.5876
ROI uptake Tr (thyroid) (49 min p.i.): 0.5416
ROI uptake ULI (upper large intestine) (49 min p.i.): 1.661
ROI uptake Bl (bladder) (61 min p.i.): 9.011
ROI uptake Bn (osteogenic cells) (61 min p.i.): 0.8028
ROI uptake Br (brain) (61 min p.i.): 0.04398
ROI uptake Brs (breast) (61 min p.i.): 0.7155
ROI uptake HC (heart contents) (61 min p.i.): 0.5817
ROI uptake HW (heart wall) (61 min p.i.): 0.3897
ROI uptake LLI (lower large intestine) (61 min p.i.): 1.338
ROI uptake Ln (lung) (61 min p.i.): 0.3258
ROI uptake Lv (liver) (61 min p.i.): 0.6399
ROI uptake Ms (muscle) (61 min p.i.): 0.9889
ROI uptake Pn (pancreas) (61 min p.i.): 1.129
ROI uptake Pt (pituitary gland) (61 min p.i.): 2.048
ROI uptake RM (red marrow) (61 min p.i.): 0.07562
ROI uptake SI (small intestine) (61 min p.i.): 6.597
ROI uptake Sk (skin) (61 min p.i.): 0.1047
ROI uptake Sp (spleen) (61 min p.i.): 0.4654
ROI uptake St (stomach) (61 min p.i.): 2.513
ROI uptake TB (total body) (61 min p.i.): 0.5643
ROI uptake Tm (thymus) (61 min p.i.): 0.5119
ROI uptake Tr (thyroid) (61 min p.i.): 0.4479
ROI uptake ULI (upper large intestine) (61 min p.i.): 1.478
Bl, PET uptake, Average (Average of patients, 29-60 min): 25.3728
Bn, PET uptake, Average (Average of patients, 29-60 min): 0.4809
Br, PET uptake, Average (Average of patients, 29-60 min): 0.09236
Brs, PET uptake, Average (Average of patients, 29-60 min): 0.4271
CA, PET uptake, Average (Average of patients, 29-60 min): 4.033
HC, PET uptake, Average (Average of patients, 29-60 min): 0.8404
HW, PET uptake, Average (Average of patients, 29-60 min): 0.6923
LLI, PET uptake, Average (Average of patients, 29-60 min): 1.574
Ln, PET uptake, Average (Average of patients, 29-60 min): 0.4315
Lv, PET uptake, Average (Average of patients, 29-60 min): 0.7253
Ms, PET uptake, Average (Average of patients, 29-60 min): 0.5597
Pn, PET uptake, Average (Average of patients, 29-60 min): 1.617
Pt, PET uptake, Average (Average of patients, 29-60 min): 3.247
RM, PET uptake, Average (Average of patients, 29-60 min): 0.2168
SI, PET uptake, Average (Average of patients, 29-60 min): 7.061
Sk, PET uptake, Average (Average of patients, 29-60 min): 0.1123
Sp, PET uptake, Average (Average of patients, 29-60 min): 0.4371
St, PET uptake, Average (Average of patients, 29-60 min): 8.975
TB, PET uptake, Average (Average of patients, 29-60 min): 0.841
Tm, PET uptake, Average (Average of patients, 29-60 min): 0.6358
Tr, PET uptake, Average (Average of patients, 29-60 min): 1.023
ULI, PET uptake, Average (Average of patients, 29-60 min): 1.719
adverse reactions (~2 mCi i.v., ~1 h p.i., lasted about an hour, disappeared without treatment): One patient reported nausea and vertigo

Source: publication PMC6791878, “Evaluation of integrin αvβ6 cystine knot PET tracers to detect cancer and idiopathic pulmonary fibrosis” (Nature Communications, 2019)
